Measured values as given in patent US20240122985A1, “ANTIBODIES, COMBINATIONS COMPRISING ANTIBODIES, BIOMARKERS, USES & METHODS” (KYMAB LIMITED, priority 2016, published 2024).
Values joined by “and” are separate entries in the source; they are usually repeats but may differ in a detail not shown here. Equal entries are not always repeated.

What was measured:
[1] = system: human T-cells with allogeneic T-cell-depleted cells; assay: Human mixed lymphocyte reaction (CellTrace Violet); format: cell-based; conditions: KY1005 150 μg/L, 7 days (FIG. 12H)
Protocol: Human Mixed Lymphocyte Reaction: Human MLRs were performed on unrelated healthy controls. PBMC samples were freshly isolated by Ficoll fractionation, followed by magnetic pan T-cell isolation using the Miltenyi Biotec human pan-T-cell isolation kit. Isolated T-cells were labeled with 2.5 μM CellTrace Violet (Invitrogen) and were co-cultured with irradiated (3500 cGy) on-column T-cell-depleted cell fractions from unrelated allogeneic individuals. MLR cultures were maintained for 7 days at 37° C. in XVivo15 (Lonza) supplemented with 10% FCS, 2 mM glutamine, penicillin-streptomycin and gentamycin and beta-Mercaptoethanol. KY1005 was added to the cultures at day 0 at a dose of 150 μg/L. On Day 7, cells were collected from the cultures, and were stained with antibodies against CD3, CD4, CD8, and then Live/Dead Aqua (Molecular Probes/Invitrogen) was added to exclude dead cells and debris. CellTrace Violet dilution was then measured in CD3^+, Live/Dead Aqua-cells by flow cytometry.

[2] = system: Rhesus Macaque Graft versus Host Disease (GvHD) model
Source text: The effectiveness of antibody 2D10 IgG4PE as a monotherapy prophylactic for the prevention of GvHD was examined in a Rhesus Macaque model of haploidentical hematopoietic stem cell transplantation (HSCT).
All transplants were between half-sibling pairs that are mismatched at one MHC haplotype (“haploidentical-HCTs”). Recipient animals had irradiation based pre-myeloablative pre-transplant conditioning using a linear accelerator. Dose rate: 7cGy/min. Dose 1020 cGy given in 4 fractions. The leukapheresis donor animal underwent GCSF mobilisation and underwent leukapheresis using a Spectra Optia apheresis machine.
2D10 IgG4PE was dosed at 10 mg/kg i.v. according to a planned dosing schedule to take place on Day −2, Day+5, Day+12, Day+19, Day+26, Day+33, Day+40, Day+47 post-transplant.
Samples were taken during the course of the study to monitor donor chimerism (Table 4) and white blood cell counts. The primary end point was based on survival, with a survival to 15 days deemed to be a sign of successful prophylactic therapy (and compared to the documented survival of 6-8 days with no prophylaxis; Miller et al. 2010, supra). Though full pathology and histology with GvHD grading scores, markers of T-cell proliferation and activation (such as Ki-67 and granzyme B) and gene array analysis are planned, they were not available for inclusion at the time of drafting.
Scoring of clinical symptoms was based on observational assessments and clinical chemistry, classified according to the criteria set out in Table 5.
A further rhesus macaque GvHD study was conducted to determine the effect of combined post-HSCT prophylaxis with 2D10 IgG4PE and rapamycin. The study was performed as described in Example 7, with dosing as follows: 2D10 IgG4PE was administered i.v. at 10 mg/kg on Day −2, Day +5, Day+12, Day+19, Day+26, Day+33, Day+40, Day+47 and Day+56 post-transplant. Rapamycin was administered at a loading dose of 0.1 mg/kg i.m. on Day −14, followed by daily i.m. maintenance doses of 0.025 mg/kg until the scheduled termination of the study at Day+100. Rapamycin dosing was adjusted to maintain serum trough levels within the range 5-15 ng/mL.
This was a cohort study in NHP designed to determine the clinical, immunologic and molecular outcomes of OX40L blockade during allogeneic HCT. Two cohorts of transplant recipients were studied: (1) Allogeneic transplants using the OX40L-blocking human IgG4-PE antibody 1D05 (described as ‘KY1005’ in this Example 11) as monotherapy for GVHD prophylaxis (abbreviated as ‘KY1005’; n=4). KY1005 was given at a dose of 10 mg/kg starting on Days −2 and then once weekly until discontinuation on Days 54 (FIG. 8E). […] (2) Allogeneic transplants using KY1005 in combination with Sirolimus (Rapamycin) ([…]) for GVHD prophylaxis (abbreviated as ‘KY1005/Siro’; n=5). KY1005 was given at a dose of 10 mg/kg starting on Days −2 and then once weekly until discontinuation on Days 54 (FIG. 8P). […] These two OX40L-blockade groups were compared to the following cohorts, aspects of which have been described previously (Furlan et al., 2015; Furlan et al., 2016; Miller et al., 2010) (1) Autologous transplants (abbreviated as ‘Auto’, n=6 for clinical and flow cytometric data and n=4 for transcriptomic analysis) (2); Allogeneic transplants with no GVHD prophylaxis (abbreviated as‘No Rx’, n=11 for clinical and flow cytometric data and n=4 for transcriptomic analysis). (3) Allogeneic transplants using Sirolimus monotherapy for GVHD prophylaxis (LC laboratories, abbreviated as ‘Siro’, n=11 for flow cytometric analysis, n=4 for transcriptomic analysis).

[3] = KY1005 pharmacokinetic (PK) analysis (OX40L capture ECL, MSD); format: in vivo, Rhesus macaque; conditions: mono-prophylaxis, 10 mg/kg once weekly (FIG. 16A)
Protocol: For PK analysis, serum samples were collected 30 minutes before and 30 minutes after each infusion of KY1005 and then once weekly after the last dose was given. The KY1005 concentration was measured using an antigen (OX40L) capture electrochemiluminescence (ECL) assay on the MSD platform. In this assay, an MSD streptavidin 96-well plate is first coated with biotinylated-OX40L, followed by the addition of test samples, followed by the detection of bound KY1005 by a ruthenylated anti-human IgG (pre-adsorbed against monkey serum for added specificity).

recombinant hOX40L = molecular target: T1, recombinant hOX40L (Homo sapiens, UniProt P23510); assay: Surface plasmon resonance, apparent affinity to human OX40L; format: binding; conditions: SPR, 25° C.; CNROR = Cannot resolve off-rate
T1 construct: cDNA encoding the extracellular domain of human OX40L was cloned into a pREP4 expression plasmid; isoleucine zipper (N); made in house; host or cells: FreeStyle CHO-S (transient)
T1 sequence (P23510 with tags, fused parts or gaps): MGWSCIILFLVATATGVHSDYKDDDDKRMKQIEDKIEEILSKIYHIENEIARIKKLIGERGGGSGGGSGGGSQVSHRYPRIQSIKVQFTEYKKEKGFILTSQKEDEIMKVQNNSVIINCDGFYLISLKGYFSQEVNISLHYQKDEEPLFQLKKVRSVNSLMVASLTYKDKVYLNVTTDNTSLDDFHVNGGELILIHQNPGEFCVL
Protocol: SPR analysis was carried out using the ProteOn™ XPR36 Array System (BioRad). Anti-mouse IgG (GE Healthcare BR-1008-38) was immobilised on a GLM biosensor surface using amine coupling, the surface was then blocked using 1 M ethanolamine. Test antibodies were captured on this surface and recombinant hOX40L (human and rhesus) were used at a single concentration of 256 nM, binding sensorgrams were double referenced using a buffer injection (i.e. 0 nM) to remove baseline drift and injection artefacts. Apparent affinities for the OX40L-antibody interaction were determined using the 1:1 model inherent to the ProteOn XPR36 analysis software. The assay was run using HBS-EP (Teknova) as running buffer and carried out at 25° C.

[4] = Rhesus HSCT, 2D10 IgG4PE 10 mg/kg i.v. weekly from Day −2, one line per animal, brackets = experimental failure

Molecule	allo-proliferation of human cells in vitro [1]	MST ([2]; Example 11 (FIG. 7C))	GVHD-free survival ([2]; Example 11, NHP (FIG. 7C))	Survival ([2]; Table 8, per animal, Seattle)	KY1005 trough [3]	median survival time, MST ([2]; Example 9, post-HSCT prophylaxis, Rhesus macaque (FIG. 7))	Survival Duration [2, 4]	Survival Duration (days) [2, 4]	survival of animals after allogeneic HCT ([2]; Rhesus macaque)	Gross necropsy, visceral GvHD ([2]; animal #4)	adverse dosing side effects ([2]; rhesus monkey, in vivo, iv, 10 mg/kg)	Apparent Affinity hOX40L (nM) (recombinant hOX40L)
KY1005: antibody used for GVHD immunoprophylaxis in NHP, measured by antigen (OX40L) capture assay; not tied to 02D10 in this part	inhibit allo-proliferation of human cells in vitro	19.5 days	19.5 days	16 day (2×) and 26 day and 23 day	107.9 ± 11.7 mg/L	–	–	–	–	–	–	–
2D10 IgG4PE: fully human anti-human OX40L monoclonal antibody, human IgG4-PE; VH Seq ID No:34, VL Seq ID No:48; 2D10-1 to -4 are stable pools (antibody, V domains shown, human IgG4-PE constant regions; 02D10 - VH Amino Acid Sequence; 02D10 - VL Amino Acid Sequence) VH: EVQLVESGGGLVQPGGSLRLSCAASGFTFSNYAMNWVRQAPGKGLEWVSTISGSGGATRYADSVKGRFTISRDNSRNTVYLQMNSLRVEDTAVFYCTKDRLIMATVRGPYYYGMDVWGQGTTVTVSS VL: DIQMTQSPSSLSASVGDRVTITCRASQSISSYLNWYQQKPGKAPNLLIYAASSLQSGVPSRFSGSGSETDFTLTISSLQPEDFATYYCQQSHSVSFTFGPGTKVDIK	–	–	–	–	–	19 days	22 days and 16 days (2×) and 26 days	(24) days	prolonged survival	no overt visceral GvHD	No serious adverse dosing side effects	CNROR
